Tested on: kinases of Table 6 on Myelin Basic Protein (MBP)
Experiment: Kinase assay using MBP substrate, ProQ Diamond stain (Table 6)
Assay type: biochemical
Settings: kinase printed on MBP-coated slide; 20 uM ATP, 30° C.; ProQ Diamond Microarray Stain; graded Strong/Weak/Negative
Procedure, shortened: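 Bovine dephosphorylated MBP coated on aldehyde- or epoxy-glass slides, kinases printed on top; reaction buffer pH 7.5 with 4 mM MgCl2, 20 uM ATP, 5% DMSO, ± inhibitor, at 30° C. Phosphorylation detected by ProQ Diamond stain, 30 min in dark.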

| Molecule | MBP Kinase Activity |
| --- | --- |
| MUSK (protein, left off: a dimerising Fc or GST) CCRRRKQWKNKKRESAAVTLTTLPSELLLDRLHPNPMYQRMPLLLNPKLLSLEYPRNNIEYVRDIGEGAFGRVFQARAPGLLPYEPFTMVAVKMLKEEASADMQADFQREAALMAEFDNPNIVKLLGVCAVGKPMCLLFEYMAYGDLNEFLRSMSPHTVCSLSHSDLSMRAQVSSPGPPPLSCAEQLCIARQVAAGMAYLSERKFVHRDLATRNCLVGENMVVKIADFGLSRNIYSADYYKANENDAIPIRWMPPESIFYNRYTTESDVWAYGVVLWEIFSYGLQPYYGMAHEEVIYYVRDGNILSCPENCPVELYNLMRLCWSKLPADRPSFTSIHRILERMCERAEGTVSV | Negative |
| PDGFRA (protein, left off: a dimerising Fc or GST) KQKPRYEIRWRVIESISPDGHEYIYVDPMQLPYDSRWEFPRDGLVLGRVLGSGAFGKVVEGTAYGLSRSQPVMKVAVKMLKPTARSSEKQALMSELKIMTHLGPHLNIVNLLGACTKSGPIYIITEYCFYGDLVNYLHKNRDSFLSHHPEKPKKELDIFGLNPADESTRSYVILSFENNGDYMDMKQADTTQYVPMLERKEVSKYSDIQRSLYDRPASYKKKSMLDSEVKNLLSDDNSEGLTLLDLLSFTYQVARGMEFLASKNCVHRDLAARNVLLAQGKIVKICDFGLARDIMHDSNYVSKGSTFLPVKWMAPESIFDNLYTTLSDVWSYGILLWEIFSLGGTPYPGMMVDSTFYNKIKSGYRMAKPDHATSEVYEIMVKCWNSEPEKRPSFYHLSEIVENLLPGQYKKSYEKIHLDFLKSDHPAVARMRVDSDNAYIGVTYKNEEDKLKDWEGGLDEQRLSADSGYIIPLPDIDPVPEEEDLGKRNRHSSQTSEESAIETGSSSSTFIKREDETIEDIDMMDDIGIDSSDLVEDSFL | Strong |
| PDGFRA, T674I (protein, left off: a dimerising Fc or GST) KQKPRYEIRWRVIESISPDGHEYIYVDPMQLPYDSRWEFPRDGLVLGRVLGSGAFGKVVEGTAYGLSRSQPVMKVAVKMLKPTARSSEKQALMSELKIMTHLGPHLNIVNLLGACTKSGPIYIIIEYCFYGDLVNYLHKNRDSFLSHHPEKPKKELDIFGLNPADESTRSYVILSFENNGDYMDMKQADTTQYVPMLERKEVSKYSDIQRSLYDRPASYKKKSMLDSEVKNLLSDDNSEGLTLLDLLSFTYQVARGMEFLASKNCVHRDLAARNVLLAQGKIVKICDFGLARDIMHDSNYVSKGSTFLPVKWMAPESIFDNLYTTLSDVWSYGILLWEIFSLGGTPYPGMMVDSTFYNKIKSGYRMAKPDHATSEVYEIMVKCWNSEPEKRPSFYHLSEIVENLLPGQYKKSYEKIHLDFLKSDHPAVARMRVDSDNAYIGVTYKNEEDKLKDWEGGLDEQRLSADSGYIIPLPDIDPVPEEEDLGKRNRHSSQTSEESAIETGSSSSTFIKREDETIEDIDMMDDIGIDSSDLVEDSFL | Negative |
| PDGFRB (protein, left off: small tags and cut ends) MLWQKKPRYEIRWKVIESVSSDGHEYIYVDPMQLPYDSTWELPRDQLVLGRTLGSGAFGQVVEATAHGLSHSQATMKVAVKMLKSTARSSEKQALMSELKIMSHLGPHLNVVNLLGACTKGGPIYIITEYCRYGDLVDYLHRNKHTFLQHHSDKRRPPSAELYSNALPVGLPLPSHVSLTGESDGGYMDMSKDESVDYVPMLDMKGDVKYADIESSNYMAPYDNYVPSAPERTCRATLINESPVLSYMDLVGFSYQVANGMEFLASKNCVHRDLAARNVLICEGKLVKICDFGLARDIMRDSNYISKGSTFLPLKWMAPESIFNSLYTTLSDVWSFGILLWEIFTLGGTPYPELPMNEQFYNAIKRGYRMAQPAHASDEIYEIMQKCWEEKFEIRPPFSQLVLLLERLLGEGYKKKYQQVDEEFLRSDHPAILRSQARLPGFHGLRSPLDTSSVLYTAVQPNEGDNDYIIPLPDPKPEVADEGPLEGSPSLASSTLNEVNTSSTISCDSPLEPQDEPEPEPQLELQVEPEPELEQLPDSGCPAPRAEAEDSFL | Strong |
